Sequences and labels used below:
B1: fHbp V2.21 Val (at V1 Val272) to Ala (natural protein)
chain: VAADIGAGLADALTAPLDHKDKSLQSLTLDQSVRKNEKLKLAAQGAEKTYGNGDSLNTGKLKNDKVSRFDFIRQIEVDGQLITLESGEFQIYKQDHSAVVALQIEKINNPDKIDSLINQRSFLVSGLGGEHTAFNQLPSGKAEYHGKAFSSDDPNGRLHYSIDFTKKQGYGRIEHLKTPEQNVELASAELKADEKSHAAILGDTRYGSEEKGTYHLALFGDRAQEIAGSATVKIREKVHEIGIAGKQ
B2: complement factor-H related 3 (CFHR3), full length, recombinant His-tagged, Q02985 19-330 (natural protein)
chain: QVKPCDFPDIKHGGLFHENMRRPYFPVAVGKYYSYYCDEHFETPSGSYWDYIHCTQNGWSPAVPCLRKCYFPYLENGYNQNYGRKFVQGNSTEVACHPGYGLPKAQTTVTCTEKGWSPTPRCIRVRTCSKSDIEIENGFISESSSIYILNKEIQYKCKPGYATADGNSSGSITCLQNGWSAQPICINSSEKCGPPPPISNGDTTSFLLKVYVPQSRVEYQCQPYYELQGSNYVTCSNGEWSEPPRCIHPCIITEENMNKNNIKLKGRSDRKYYAKTGDTIEFMCKLGYNANTSILSFQAVCREGIVEYPRCE
B3: CFHR3_(12), the first two (N-terminal) CCP domains of complement factor H-related 3, Q02985 19-330 (domain or fragment)
chain: B2 chain
B4: complement factor-H related 3 (CFHR3), full length, recombinant His-tagged (natural protein)
chain: B2 chain
B5: CFHR3_(12), the first two CCP domains of CFHR3 (domain or fragment)
chain: KPCDFPDIKHGGLFHENMRRPYFPVAVGKYYSYYCDEHFETPSGSYWDYIHCTQNGWSPAVPCLRKCYFPYLENGYNQNYGRKFVQGNSTEVACHPGYGLPKAQTTVTCTEKGWSPTPRCIR
B6: fHbp V2.21 Gln (at V1 Lys191) to Ala (natural protein)
chain: MGPDSDRLQQRRVAADIGAGLADALTAPLDHKDKSLQSLTLDQSVRKNEKLKLAAQGAEKTYGNGDSLNTGKLKNDKVSRFDFIRQIEVDGQLITLESGEFQIYKQDHSAVVALQIEKINNPDKIDSLINARSFLVSGLGGEHTAFNQLPSGKAEYHGKAFSSDDPNGRLHYSIDFTKKQGYGRIEHLKTPEQNVELASAELKADEKSHAVILGDTRYGSEEKGTYHLALFGDRAQEIAGSATVKIREKVHEIGIAGKQLEHHHHHH
B7: CFH67, CCP domains 6 and 7 of complement factor H (domain or fragment)
chain: TLKPCDYPDIKHGGLYHENMRRPYFPVAVGKYYSYYCDEHFETPSGSYWDHIHCTQDGWSPAVPCLRKCYFPYLENGYNQNYGRKFVQGKSIDVACHPGYALPKAQTTVTCMENGWSPTPRCI
notes: source: prepared as previously described (Prosser et al., 2007)
B8: fHbp V3.28 Val (at V1 Val272) to Ala (natural protein)
chain: VAADIGTGLADALTAPLDHKDKGLKSLTLEDSIPQNGTLTLSAQGAEKTFKAGDKDNSLNTGKLKNDKISRFDFVQKIEVDGQTITLASGEFQIYKQNHSAVVALQIEKINNPDKTDSLINQRSFLVSGLGGEHTAFNQLPGGKAEYHGKAFSSDDPNGRLHYSIDFTKKQGYGRIEHLKTLEQNVELAAAELKADEKSHAAILGDTRYGSEEKGTYHLALFGDRAQEIAGSATVKIGEKVHEIGIAGKQ

Changes are numbered by the printed parent chain. Values joined by “and” are separate entries in the source; they are usually repeats but may differ in a detail not shown here. Equal entries are not always repeated.

The target of assay [1] is fHbp V1.1, recombinant His-tagged (Neisseria meningitidis) (UniProt Q9JXV4). As to the kind of experiment: SPR. A general note: Surface plasmon resonance follows binding to a sensor surface in real time, without labels.
In assay [2] the target is T1, CFHR3_(12), the first two (N-terminal) CCP domains of complement factor H-related 3 (human, UniProt Q02985 19-330).
T1 construct: also called CFHR12
T1 sequence: B2 chain
As to the kind of experiment: SPR. The conditions noted are these: both partners purified.

For assay [3], the target named is factor H binding protein (fHbp) V3.28, recombinant His-tagged (Neisseria meningitidis), E6MV22. Put plainly: MST.
The target in assay [4] is factor H binding protein (fHbp) V3.28 (N. meningitidis), E6MV22. Put plainly: SPR.
Assay [5] deals with T2, factor H binding protein (fHbp) V3.28, recombinant His-tagged (Neisseria meningitidis, UniProt E6MV22 20-274).
T2 chain: B8 chain with A202V
Put plainly: MST.

The target of assay [6] is T2, factor H binding protein (fHbp) V3.28, …. Put plainly: SPR.
The target in assay [7] is B7. Put plainly: SPR. The conditions noted are these: both partners purified.
In assay [8] the target is factor H binding protein (fHbp) V3.28 (N. meningitidis, UniProt E6MV22 20-274). Put plainly: SPR. As to conditions: both partners purified.
In assay [9] the target is T3, factor H binding protein (fHbp) V1.1 (N. meningitidis, UniProt Q9JXV4 20-274).
T3 construct: fHbp variant 1.1; source: recombinant, as in Johnson et al., 2012
T3 sequence: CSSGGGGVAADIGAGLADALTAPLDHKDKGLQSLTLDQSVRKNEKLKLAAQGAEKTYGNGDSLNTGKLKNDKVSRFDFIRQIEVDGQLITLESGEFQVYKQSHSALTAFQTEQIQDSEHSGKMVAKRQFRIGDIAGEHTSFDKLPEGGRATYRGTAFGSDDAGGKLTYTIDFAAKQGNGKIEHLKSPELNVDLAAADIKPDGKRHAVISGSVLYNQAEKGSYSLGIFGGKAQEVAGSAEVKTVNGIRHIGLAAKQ
As to the kind of experiment: SPR. The conditions noted are these: both partners purified.

The target in assay [10] is T1, CFHR3_(12), the first two (N-terminal) …. Put plainly: SPR. The conditions noted are these: both partners purified. The source holds these as a separate data set.
Assay [11] has as its target B7. As to the kind of experiment: SPR. The conditions noted are these: both partners purified. This is another data set of the same source.

From publication PMC4273445 (eLife, 2014) come the findings set out here.

Turning to “CFHR3_(12), the first two CCP domains of CFHR3 (domain or fragment)”, the specificity for CFH over CFHR3 (fold) in assay [1] was 20 fold.

The term Kd denotes a measure of binding affinity in units of concentration. As for B1, the Kd in assay [2] was found to be 63.5 nM.

Regarding B2, the Kd in [3] is 3 nM.

With B3, the Kd in assay [4] was 4.08 nM and 4 nM and 4.25 nM.

B4: the Kd in assay [5] came out at 9 nM.

On to B5, for which the Kd in assay [6] was 4 nM.

Turning to B6, the Kd in assay [2] is 2.85 nM; in [7], 3.02 nM.

With B7, the Kd in assay [8] is 2.74 nM and 2.46 nM and 3.17 nM; in [9], 3.56 nM.

Take B8: the Kd in [10] was determined as 42 nM; in assay [11], 25.3 nM.
